# Legend:
# human KDR [1] = biological target: T1, human KDR (human, UniProt P35968 20-1356); assay: cell-based or functional assay
# human KDR [2] = biological target: T1, human KDR; assay: cell-based or functional assay; remark: listed apart in the source
# human KDR [3] = biological target: T1, human KDR; assay: cell-based or functional assay; remark: listed apart in the source
# [4] = biological target: T2, mouse KDR (Flk-1)/Fc (Cat. #443-KD/CF, R&D Systems, Inc.) (mouse, UniProt P35918 20-762); assay: ELISA, Flk-1 coat 5 ug/mL, antibody 1 ug/mL
# T2 construct: Bought reagent; also called mouse VEGFR2; KDR mouse ortholog; not shown: Fc of the bought fusion protein
# Method in brief: (§1)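 Purified antibodies tested by ELISA for cross-reactivity against coated mouse Flk-1/Fc and for binding to soluble KDR Ig4-7 domain; […]. IgG1 and IgG4 served as antibody controls.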
# [5] = biological target: T2, mouse KDR (Flk-1)/Fc (Cat. #443-KD/CF, …); assay: ELISA, Flk-1 coat 5 ug/mL, antibody 0.1 ug/mL
# Method in brief: as §1
# [6] = biological target: T3, whole KDR-ECD (Cat. # 676490, Calbiochem) (human, UniProt P35968 20-764); assay: ELISA, KDR-ECD coat 5 ug/mL, antibody 1 ug/mL
# T3 construct: extracellular domain; Bought soluble protein; also called soluble KDR; VEGF Receptor 2 D1-7
# Method in brief: (§2)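 Coat wells with the recombinant receptor protein, add purified antibody, then detect the bound antibody by ELISA. Isotype IgG1 and IgG4 are run alongside as controls.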
# [7] = biological target: T2, mouse KDR (Flk-1)/Fc (Cat. #443-KD/CF, …); assay: ELISA, Flk-1 coat 5 ug/mL, antibody 0.01 ug/mL
# Method in brief: as §1
# [8] = biological target: T3, whole KDR-ECD (Cat. # 676490, …); assay: ELISA, KDR-ECD coat 5 ug/mL, antibody 0.1 ug/mL
# Method in brief: as §2
# [9] = biological target: T3, whole KDR-ECD (Cat. # 676490, …); assay: ELISA, KDR-ECD coat 5 ug/mL, antibody 0.01 ug/mL
# Method in brief: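 Purified antibodies were tested by ELISA for binding to immobilised target protein to assess cross-reactivity with the mouse ortholog and binding to the soluble Ig4-7 fragment. IgG1 and IgG4 isotype antibodies served as controls.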
# soluble KDR Ig4-7 domain [10] = biological target: T4, soluble KDR Ig4-7 domain (human, UniProt P35968 328-764); assay: ELISA, KDR Ig4-7 coat (1:1 diln.), antibody 1 ug/mL
# T4 construct: domain: Ig4-7 domain; also called b-KDRIg4-7-myc-his; Ig4-7 domain of KDR; not shown: myc-his tag of the pSecTag construct
# Method in brief: as §1
# soluble KDR Ig4-7 domain [11] = biological target: T4, soluble KDR Ig4-7 domain; assay: ELISA, KDR Ig4-7 coat (1:1 diln.), antibody 0.1 ug/mL
# Method in brief: as §1
# cynomolgus KDR = biological target: T5, cynomolgus KDR (cynomolgus monkey, UniProt A0A2K5VE63 20-1356); assay: FACS on Cyno KDR/293T transfectants, antibody 5 ug/mL
# T5 construct: whole, on cells; also called Cyno KDR
# Description: The binding of purified antibodies to cell-bound cynomolgus KDR (with parental cells as negative control) was tested by FACS analysis in this assay.
# Cynomolgus KDR was cloned in 3 pieces. One piece was PCR amplified from cynomolgus lung cDNA, and the remaining two pieces were PCR amplified from cynomolgus kidney cDNA. The three PCR products were inserted into pCR3.1 Bid vector. […] Transfected cells were seeded at 50,000 cells/well and incubated with 5 μg/mL of candidate antibody for one hour at 4° C. The cells were then washed and incubated with secondary antibody (Cy5-conjugated goat anti-human antibody, or Cy5-conjugated rabbit anti-goat antibody, plus 7-Amino-Actinomycin (7AAD)) for 15 minutes at 4° C. Binding between cynomolgus KDR and purified antibody was detected by FACS analysis.
# soluble KDR Ig4-7 domain [12] = biological target: T4, soluble KDR Ig4-7 domain; assay: ELISA, KDR Ig4-7 coat (1:1 diln.), antibody 0.01 ug/mL
# Method in brief: as §1
# human KDR [13] = biological target: T1, human KDR; assay: FACS titration of purified antibody on HUVEC cells (FACS Kd)
# Description: The binding affinities of the purified antibodies for endogenously-expressed KDR in HUVEC cells was measured. HUVEC cells were seeded at 150,000 cells/well and incubated with titrations of purified antibody for 4 hours at 4° C. The cells were then washed and incubated with goat anti-human IgG-Fc-Cy5+5 μg/mL 7-Amino-Actinomycin (7AAD) for 30 minutes at 4° C. Bound KDR was detected using FACS analysis.
# human KDR [14] = biological target: T1, human KDR; assay: FACS competition on 293T/human KDR transfectants; antibody 5 ug/mL first, then competitor VEGF165 50 ng/mL; bound VEGF165 detected
# Description: (§3) Transfected cells were then seeded at 50,000 cells/well and incubated with 5 μg/mL of candidate antibody for one hour at 4° C. […] After washing, the cells were incubated with Cy5-conjugated rabbit anti-goat antibody plus 7AAD for 15 minutes at 4° C.
# human KDR [15] = biological target: T1, human KDR; assay: FACS competition on 293T/human KDR transfectants; antibody 5 ug/mL first, then competitor VEGF165 50 ng/mL; inhibition of VEGF binding
# Description: as §3
# T2 sequence (P35918 20-762 limits assumed): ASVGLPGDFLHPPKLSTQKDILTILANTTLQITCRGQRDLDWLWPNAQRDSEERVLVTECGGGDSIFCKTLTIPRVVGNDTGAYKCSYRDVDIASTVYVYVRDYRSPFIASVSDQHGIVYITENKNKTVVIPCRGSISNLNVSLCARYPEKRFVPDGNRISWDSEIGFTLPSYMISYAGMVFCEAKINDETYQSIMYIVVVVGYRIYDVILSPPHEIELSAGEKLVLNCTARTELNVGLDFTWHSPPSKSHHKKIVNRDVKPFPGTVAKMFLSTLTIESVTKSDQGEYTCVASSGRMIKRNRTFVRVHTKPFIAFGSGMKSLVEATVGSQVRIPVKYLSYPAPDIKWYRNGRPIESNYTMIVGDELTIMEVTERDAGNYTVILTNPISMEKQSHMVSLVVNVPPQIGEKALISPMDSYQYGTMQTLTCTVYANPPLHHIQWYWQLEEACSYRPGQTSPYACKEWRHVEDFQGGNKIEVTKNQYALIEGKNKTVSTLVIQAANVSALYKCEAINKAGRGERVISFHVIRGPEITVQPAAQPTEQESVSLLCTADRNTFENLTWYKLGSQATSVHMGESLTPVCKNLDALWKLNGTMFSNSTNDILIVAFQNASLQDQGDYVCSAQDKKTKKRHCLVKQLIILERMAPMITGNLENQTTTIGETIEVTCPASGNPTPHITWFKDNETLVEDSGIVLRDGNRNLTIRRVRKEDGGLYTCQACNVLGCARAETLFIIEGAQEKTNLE
# T1 sequence (P35968 20-1356): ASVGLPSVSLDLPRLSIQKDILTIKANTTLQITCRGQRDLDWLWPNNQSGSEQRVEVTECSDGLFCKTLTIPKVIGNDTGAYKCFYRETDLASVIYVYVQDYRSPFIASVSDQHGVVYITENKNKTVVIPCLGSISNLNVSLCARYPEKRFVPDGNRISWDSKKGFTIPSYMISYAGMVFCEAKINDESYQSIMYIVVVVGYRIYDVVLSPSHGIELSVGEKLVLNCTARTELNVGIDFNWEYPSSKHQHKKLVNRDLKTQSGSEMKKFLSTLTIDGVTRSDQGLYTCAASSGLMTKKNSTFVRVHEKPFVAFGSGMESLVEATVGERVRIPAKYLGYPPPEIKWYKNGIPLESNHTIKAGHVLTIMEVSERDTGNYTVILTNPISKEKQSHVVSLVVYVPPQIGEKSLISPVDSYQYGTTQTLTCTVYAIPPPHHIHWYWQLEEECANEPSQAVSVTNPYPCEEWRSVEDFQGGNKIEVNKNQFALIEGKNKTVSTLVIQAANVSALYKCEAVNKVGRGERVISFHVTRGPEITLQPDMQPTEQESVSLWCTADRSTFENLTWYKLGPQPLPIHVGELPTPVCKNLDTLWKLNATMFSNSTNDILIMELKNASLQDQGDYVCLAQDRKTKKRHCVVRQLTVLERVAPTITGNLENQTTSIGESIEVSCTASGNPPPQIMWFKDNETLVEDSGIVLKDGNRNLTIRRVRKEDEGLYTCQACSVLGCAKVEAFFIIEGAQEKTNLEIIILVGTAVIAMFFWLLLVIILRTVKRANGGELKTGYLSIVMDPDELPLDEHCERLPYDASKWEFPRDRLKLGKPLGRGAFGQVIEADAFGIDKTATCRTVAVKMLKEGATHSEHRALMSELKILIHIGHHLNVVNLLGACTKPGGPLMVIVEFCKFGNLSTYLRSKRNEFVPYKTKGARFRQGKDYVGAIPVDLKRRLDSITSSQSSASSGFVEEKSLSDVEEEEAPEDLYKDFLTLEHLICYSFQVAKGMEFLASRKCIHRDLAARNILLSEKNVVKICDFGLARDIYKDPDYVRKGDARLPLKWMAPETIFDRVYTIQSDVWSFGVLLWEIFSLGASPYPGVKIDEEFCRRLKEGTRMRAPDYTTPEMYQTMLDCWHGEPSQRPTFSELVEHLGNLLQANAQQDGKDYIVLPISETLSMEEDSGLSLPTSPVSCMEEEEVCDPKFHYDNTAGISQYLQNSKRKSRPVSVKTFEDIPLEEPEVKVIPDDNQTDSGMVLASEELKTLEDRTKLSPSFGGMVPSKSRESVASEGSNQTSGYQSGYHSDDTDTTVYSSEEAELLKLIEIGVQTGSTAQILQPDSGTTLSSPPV
# T3 sequence (P35968 20-764): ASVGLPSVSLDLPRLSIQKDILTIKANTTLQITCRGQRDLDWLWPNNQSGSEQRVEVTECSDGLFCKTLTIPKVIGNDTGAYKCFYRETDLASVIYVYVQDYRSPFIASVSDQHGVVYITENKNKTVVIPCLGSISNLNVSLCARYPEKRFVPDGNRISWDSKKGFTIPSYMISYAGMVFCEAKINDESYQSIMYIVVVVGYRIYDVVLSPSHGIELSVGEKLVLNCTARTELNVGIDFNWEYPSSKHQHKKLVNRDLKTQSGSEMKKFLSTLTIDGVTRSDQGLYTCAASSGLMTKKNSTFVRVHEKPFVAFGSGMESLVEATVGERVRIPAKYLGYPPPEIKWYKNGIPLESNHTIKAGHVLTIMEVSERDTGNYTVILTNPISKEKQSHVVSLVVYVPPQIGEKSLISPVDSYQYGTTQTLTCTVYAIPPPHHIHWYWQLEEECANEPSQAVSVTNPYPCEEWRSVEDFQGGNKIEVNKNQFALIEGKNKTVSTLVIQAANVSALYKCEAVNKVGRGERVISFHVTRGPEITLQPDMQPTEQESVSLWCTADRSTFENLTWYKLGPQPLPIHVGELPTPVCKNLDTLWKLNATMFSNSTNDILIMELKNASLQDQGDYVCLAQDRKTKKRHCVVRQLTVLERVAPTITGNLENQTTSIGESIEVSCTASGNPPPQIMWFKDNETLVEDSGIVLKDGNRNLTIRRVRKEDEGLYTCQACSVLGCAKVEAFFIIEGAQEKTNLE
# T4 sequence (P35968 328-764): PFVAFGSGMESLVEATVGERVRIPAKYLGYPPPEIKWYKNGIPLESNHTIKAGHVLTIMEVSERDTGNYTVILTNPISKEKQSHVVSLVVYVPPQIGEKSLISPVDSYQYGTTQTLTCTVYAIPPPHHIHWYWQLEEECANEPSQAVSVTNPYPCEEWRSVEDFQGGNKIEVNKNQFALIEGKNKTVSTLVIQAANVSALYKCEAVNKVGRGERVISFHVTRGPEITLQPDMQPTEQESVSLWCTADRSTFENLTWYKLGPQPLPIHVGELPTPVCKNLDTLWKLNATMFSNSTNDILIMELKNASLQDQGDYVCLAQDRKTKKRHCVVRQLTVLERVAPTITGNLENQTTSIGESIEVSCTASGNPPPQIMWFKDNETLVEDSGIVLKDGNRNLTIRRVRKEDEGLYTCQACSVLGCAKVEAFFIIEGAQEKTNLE
# T5 sequence (A0A2K5VE63 entry or part of it): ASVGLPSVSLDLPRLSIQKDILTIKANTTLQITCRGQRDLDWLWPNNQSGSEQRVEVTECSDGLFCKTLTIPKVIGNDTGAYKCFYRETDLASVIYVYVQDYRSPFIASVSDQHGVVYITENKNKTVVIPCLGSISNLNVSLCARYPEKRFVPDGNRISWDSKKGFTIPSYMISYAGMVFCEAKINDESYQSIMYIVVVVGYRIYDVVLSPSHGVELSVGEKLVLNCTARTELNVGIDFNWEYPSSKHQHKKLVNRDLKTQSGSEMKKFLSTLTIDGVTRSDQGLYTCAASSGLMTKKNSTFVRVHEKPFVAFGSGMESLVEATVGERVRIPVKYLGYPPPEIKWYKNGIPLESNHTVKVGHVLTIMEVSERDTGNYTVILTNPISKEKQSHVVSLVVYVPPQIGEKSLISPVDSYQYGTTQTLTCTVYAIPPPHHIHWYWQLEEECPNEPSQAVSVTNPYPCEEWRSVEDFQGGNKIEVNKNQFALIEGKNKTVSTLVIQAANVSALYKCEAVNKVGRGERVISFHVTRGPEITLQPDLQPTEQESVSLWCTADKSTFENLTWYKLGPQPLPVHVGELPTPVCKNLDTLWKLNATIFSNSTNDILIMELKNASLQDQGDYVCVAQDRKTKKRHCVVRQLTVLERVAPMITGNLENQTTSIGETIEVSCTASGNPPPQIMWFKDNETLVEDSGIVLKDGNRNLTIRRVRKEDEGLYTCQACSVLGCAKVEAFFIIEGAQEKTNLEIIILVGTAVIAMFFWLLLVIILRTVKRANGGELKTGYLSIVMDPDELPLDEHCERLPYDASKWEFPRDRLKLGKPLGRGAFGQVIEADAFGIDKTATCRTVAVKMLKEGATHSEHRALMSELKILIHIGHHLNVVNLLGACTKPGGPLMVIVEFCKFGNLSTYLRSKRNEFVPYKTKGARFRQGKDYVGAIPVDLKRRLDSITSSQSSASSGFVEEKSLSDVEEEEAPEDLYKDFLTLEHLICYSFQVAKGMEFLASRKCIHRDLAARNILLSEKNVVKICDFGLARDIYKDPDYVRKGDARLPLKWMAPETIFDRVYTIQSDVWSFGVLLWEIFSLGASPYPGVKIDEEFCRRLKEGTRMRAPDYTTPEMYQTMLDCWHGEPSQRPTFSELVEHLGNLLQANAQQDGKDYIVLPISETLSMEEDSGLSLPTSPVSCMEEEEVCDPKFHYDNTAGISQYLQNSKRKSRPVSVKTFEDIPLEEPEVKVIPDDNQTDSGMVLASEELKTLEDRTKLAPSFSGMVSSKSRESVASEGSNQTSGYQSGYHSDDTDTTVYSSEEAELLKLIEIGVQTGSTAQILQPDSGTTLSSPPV
Binder,"KDR tyrosine phosphorylation in HUVEC, EC50 (nM), Average (human KDR [1])","KDR tyrosine phosphorylation in HUVEC, EC50 (nM), N = 1 (human KDR [1])","KDR tyrosine phosphorylation in HUVEC, EC50 (nM), N = 2 (human KDR [1])","KDR tyrosine phosphorylation in HUVEC, Maximum Inhibition at 100 nM (% Inhibition), Average (human KDR [1])","KDR tyrosine phosphorylation in HUVEC, Maximum Inhibition at 100 nM (% Inhibition), N = 1 (human KDR [1])","KDR tyrosine phosphorylation in HUVEC, Maximum Inhibition at 100 nM (% Inhibition), N = 2 (human KDR [1])","HUVEC survival, Maximum Inhibition at 50 nM (% Inhibition), Average (human KDR [2])","HUVEC survival, Maximum Inhibition at 50 nM (% Inhibition), N = 1 (human KDR [2])","HUVEC survival, Maximum Inhibition at 50 nM (% Inhibition), N = 2 (human KDR [2])","6-keto Prostaglandin F1α release, EC50 (nM), Average (human KDR [3])","6-keto Prostaglandin F1α release, EC50 (nM), N = 1 (human KDR [3])","6-keto Prostaglandin F1α release, EC50 (nM), N = 2 (human KDR [3])","6-keto Prostaglandin F1α release, Maximum Inhibition (% Inhibition), Average (human KDR [3])","6-keto Prostaglandin F1α release, Maximum Inhibition (% Inhibition), N = 1 (200 nM) (human KDR [3])","6-keto Prostaglandin F1α release, Maximum Inhibition (% Inhibition), N = 2 (333 nM) (human KDR [3])",ELISA reading [4],ELISA reading [5],ELISA reading [6],ELISA reading [7],ELISA reading [8],further results
"24B3 (antibody, V domains shown, Fully human monoclonal antibody from a XenoMouse hybridoma (IgG2 or IgG4 strain), purified) VH: EVQLVESGGGLVKPGGSLRLSCAASGFTFSTYSMNWVRQAPGKGLEWVSFISGRSSYIYYADSVKGRFTISRDNAKNSLYLQMNSLRAEDTAVYYCSKDDWFEELWGQGTLVTVSS VL: DIQMTQSPSSLSASVGDRVTITCRASQGIRSDLGWYQQKPGKAPKRLIYATSSLQSGVPSRFSGSGSGTEFTLTISSLQPEDFATYYCLQHNRYPWTFGQGTKVEIK",2.2 nM,2.1 nM,2.3 nM,81%,78%,84%,90%,97%,82%,12.1 nM,8.1 nM,16.2 nM,54%,37%,72%,3.39,2.75,3.02,1.58,0.304,ELISA reading [9]: 0.09; ELISA reading (soluble KDR Ig4-7 domain [10]): 3.47; ELISA reading (soluble KDR Ig4-7 domain [11]): 2.8; FACS Geometric Mean Fluorescence (cynomolgus KDR): 68.4; ELISA reading (soluble KDR Ig4-7 domain [12]): 1.45; Kd (human KDR [13]): 0.8 nM; FACS Geometric Mean Fluorescence (bound VEGF165) (human KDR [14]): 97; % Inhibition (human KDR [15]): 27%
"31E11 (antibody, V domains shown, Fully human monoclonal antibody from a XenoMouse hybridoma (IgG2 or IgG4 strain), purified) VH: QVQLVESGGGLVKPGGSLRLSCAASGFTFSDYYMSWIRQAPGKGLEWVSYISISGSTIYYADSVKGRFTISRDNAKNSLYLQMNSLRAEDTAVYYCARDDFWSGYYFNWFDPWGQGTLVTVSS VL: DIQMTQSPSSLSASVGDRVTITCRANQTISTFLNWYQQNPGKAPKLLIYAASSLQSGVPSRFSGSGSGTDFTLTISSLQPEDFATYYCQQTYIIPLTFGGGTKVEIK",1.9 nM,2 nM,1.9 nM,85%,84%,86%,101%,101%,101%,6.2 nM,6.1 nM,6.4 nM,98%,88%,108%,3.1,2.37,1.96,0.826,0.161,ELISA reading [9]: 0.08; ELISA reading (soluble KDR Ig4-7 domain [10]): 0.107; ELISA reading (soluble KDR Ig4-7 domain [11]): 0.073; FACS Geometric Mean Fluorescence (cynomolgus KDR): 99.5; ELISA reading (soluble KDR Ig4-7 domain [12]): 0.072; Kd (human KDR [13]): 11.3 nM; FACS Geometric Mean Fluorescence (bound VEGF165) (human KDR [14]): 138; % Inhibition (human KDR [15]): -8%
"33E1 (antibody, V domains shown, Fully human monoclonal antibody from a XenoMouse hybridoma (IgG2 or IgG4 strain), purified) VH: QVQLQESGPGLVKPSQTLSLTCTVSGGSISSGDHYWSWIRQHPGKGLEWIGHIYYSGSTDYNPSLKSRVTISVDTSKNHFSLKLNSVTAADTAVYYCARTNSSSWSDWYFDLWGRGTLVTVSS VL: DIVMTQSPDSLAVSLGERATINCKSSQSILYSSNNKNYLAWYQRKPGQPPILLIHWASTRESGVPDRFSGSGSRTDFTLTISSLQAEDVAVYYCQQYFITPWTFGQGTKVEIK",5.5 nM,5.8 nM,5.1 nM,74%,73%,75%,103%,107%,99%,5.1 nM,4.8 nM,5.4 nM,90%,77%,103%,2.17,1.47,1.38,0.846,0.205,ELISA reading [9]: 0.081; ELISA reading (soluble KDR Ig4-7 domain [10]): 0.107; ELISA reading (soluble KDR Ig4-7 domain [11]): 0.074; FACS Geometric Mean Fluorescence (cynomolgus KDR): 88.5; ELISA reading (soluble KDR Ig4-7 domain [12]): 0.067; Kd (human KDR [13]): 3.8 nM; FACS Geometric Mean Fluorescence (bound VEGF165) (human KDR [14]): 147; % Inhibition (human KDR [15]): -15%

# Reference: patent US20100260765A1 (AstraZeneca / MedImmune, published 2010)
